The experiment addresses human plasma fibronectin (human). The experiment can be described thus: ELISA. (In general: ELISA stands for enzyme-linked immunosorbent assay.)

B1: bone morphogenetic protein 2 (ligand)
chain: QAKHKQRKRLKSSCKRHPLYVDFSDVGWNDWIVAPPGYHAFYCHGECPFPLADHLNSTNHAIVQTLVNSVNSKIPKACCVPTELSAISMLYLDENEKVVLKNYQDMVVEGCGCR
In the case of B1, the percent of BMP2 absorbed was in the range of 70 to 80%.

These data come from publication doi:10.1101/2020.09.17.302455.
